± gives the standard deviation.
Experiment: protein stability index of a GFP-peptide fusion (GPS, HEK-293T) (PSI 1-6); higher = more stable
Settings: c terminus: a fixed tail appended
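Note: 24-mer peptide tiles fused after GFP, lentivirally expressed, FACS-sorted into six equal bins by GFP/DsRed ratio, decoded by Illumina sequencing, PSI is the read-weighted mean bin number.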

Row | Sequence | protein stability index (treatment: DMSO) | protein stability index (treatment: MLN4924 1 uM, 8 h)
1 | ICQGDGSSCTHVTGNYRKGNAHLG [ADAMTSL2] | 3.74 ± 0.33 | 3.92 ± 0.26
2 | YVKVLHHMVKISGGPHISYPPLHE [MAGEA3] | 2.33 ± 0.61 | 2.58 ± 0.31
3 | YTGPSSSGRFAGREWYYGNVTRHQ [NCK2] | 2.35 ± 0.31 | 2.65 ± 0.58
4 | LDREIRLQRLSHSGSRVRVGFRLC [SCNN1D] | 2.39 ± 0.17 | 2.48 ± 0.16
5 | LGQHMVEQLLARGYAVNVFDIQQG [NSDHL] | 2.72 ± 0.9 | 2.22 ± 0.57
6 | AAQFTDFLIPMLEMVPEKRASAGE [SRPK2] | 3.6 ± 0.29 | 3.97 ± 0.29
7 | FDVETRHVFIGDHSGQVTILKLEQ [WDFY2] | 2.2 ± 0.44 | 2.43 ± 0.33
8 | GPLDIWAVVKPGNTKEKIAFFASH [FBXO34] | 2.45 ± 0.27 | 2.78 ± 0.21
9 | YRQPIPVQELVLEDLQDGDVRMGG [NET1] | 4.4 ± 0.29 | 4.56 ± 0.34
10 | ISLFFLIIYMGSFMLMLLVLGIQV [CDS1] | 3.18 ± 0.23 | 3.33 ± 0.11
11 | QLKIAANPFAKGFRENGRNCKRER [TBX6] | 3.33 ± 0.25 | 3.47 ± 0.33
12 | KSNGRGGSQAGGSGSAGQYGSDQQ [MYOZ1] | 5.49 ± 0.23 | 5.4 ± 0.14
13 | EAELELLRQFDLAWQYGPCTGITR [POLD4] | 2.85 ± 0.3 | 2.67 ± 0.3
14 | ERLDELQDKSESLSDNATAFSNRS [VAMP4] | 5.44 ± 0.24 | 5.34 ± 0.088
15 | FGFFFGRTPLIKLSPKKTWEGFIG [CDS1] | 2.47 ± 0.48 | 2.18 ± 0.57
16 | SHSRERPYKCVQPDCGKAFVSRYK [PLAGL1] | 3.34 ± 0.23 | 3.37 ± 0.17
17 | RRDEQDDDDKGDSKETRLTLMEEV [GOLPH3] | 5.58 ± 0.23 | 5.51 ± 0.2
18 | EQELLRRQQRLNQLEKPPEKEEDH [FAM107A] | 5.62 ± 0.16 | 5.54 ± 0.12
19 | PRHPIRALVGDEVELPCRISPGKN [MOG] | 4.62 ± 0.17 | 4.72 ± 0.21
20 | WNVAAPLYLKQSDLASAAAKQIME [INTS4] | 2.67 ± 0.13 | 2.81 ± 0.05
21 | FQEYDTDCEVFRQRFRQFQYREAA [ZNF449] | 2.77 ± 0.27 | 3.18 ± 0.23
22 | KESESEAKVDGETASDSESRAESA [CDS2] | 5.6 ± 0.17 | 5.34 ± 0.34

Row | Sequence | protein stability index (treatment: DMSO) | protein stability index (treatment: MLN4924 1 uM, 8 h)
23 | CFKSVAKTPYDTSRRQEKSAGDAD [ELOA2] | 4.96 ± 0.3 | 5 ± 0.46
24 | ELRRRRYEYDHWDAAIHGFRETEK [ALKBH7] | 3.5 ± 0.39 | 3.56 ± 0.44
25 | LSLCCWGWVSGQLRYSVVEESEPG [PCDHGC5] | 2.65 ± 0.48 | 2.25 ± 0.5
26 | ALEAAVHVQKLSQECLKQLAIKKQ [TRIM14] | 3.91 ± 0.16 | 3.54 ± 0.52
27 | DMRDPTYRPLKQELQGLDYCKPTR [SPSB1] | 3.76 ± 0.59 | 4.04 ± 0.55
28 | PILKRKLPGSDVSGRLMGSPPVPG [FBXO28] | 3.9 ± 0.3 | 4 ± 0.1
29 | GLRASTSDGILRGNGTGYLPGRGR [RHOBTB2] | 4.58 ± 0.26 | 4.58 ± 0.2
30 | AQEQLRPQTPEPVEGRKHVDVQTE [RSPH3] | 5.41 ± 0.31 | 5.34 ± 0.24
31 | RLSTSPVRLAARQEDAPMIEPLVP [EPB41L3] | 4.6 ± 0.18 | 4.63 ± 0.43
32 | SIPNLAEVKKKGKMKKLGQAMEED [HDAC6] | 4.8 ± 0.088 | 4.86 ± 0.44
33 | KYKRRRFQKTKNLLTGETEADPEM [CLPTM1] | 4.83 ± 0.28 | 4.57 ± 0.4
34 | EFNGLKKMNPKLKTLLAIGGWNFS [CHIT1] | 2.44 ± 0.57 | 2.32 ± 0.34
35 | LLNTLSLAFVGGLPLAYQQTSAFA [TMEM175] | 3.2 ± 0.3 | 2.74 ± 0.42
36 | EAAMAIASLNGYRLGERVLQVSFK [ELAVL3] | 2.24 ± 0.11 | 2.27 ± 0.17
37 | LEDVERELDGPKQIFFGRRKDMIA [ZNF396] | 3.98 ± 0.3 | 4 ± 0.15
38 | YIGTHEYPHFSHRPSTLQAASTPQ [OAS1] | 2.61 ± 0.56 | 3.16 ± 0.48
39 | NVEMDAAPGVDLSRILNEMRDQYE [KRT16] | 4.34 ± 0.18 | 4.46 ± 0.37
40 | GPLAQPLTLQVLVAGNPQDTRLRY [ADAMTS4] | 2.49 ± 0.22 | 2.86 ± 0.1
41 | KSSTVGLVTLNDMKAKQEALVKER [FAM50A] | 4.69 ± 0.31 | 4.45 ± 0.39
42 | TISFRIYKSVLQAVQKTDEGHPFK [RTN1] | 2.13 ± 0.17 | 2.28 ± 0.13
43 | FVNDLTVTQDGRKIYFTDSSSKWQ [APMAP] | 2.8 ± 0.46 | 2.92 ± 0.24
44 | QTPEQYYFCYKAILEFAEKEGMVS [PTPN9] | 2.12 ± 0.47 | 2.22 ± 0.35
